From patent US20250281611A1 (BIOSCEPTRE AUST, published 2025)

T1: CD19 (UniProt P15391 20-556, limits assumed)
T1 construct: whole, on cells; also called CD19 on JeKo-1
T1 sequence (looked up): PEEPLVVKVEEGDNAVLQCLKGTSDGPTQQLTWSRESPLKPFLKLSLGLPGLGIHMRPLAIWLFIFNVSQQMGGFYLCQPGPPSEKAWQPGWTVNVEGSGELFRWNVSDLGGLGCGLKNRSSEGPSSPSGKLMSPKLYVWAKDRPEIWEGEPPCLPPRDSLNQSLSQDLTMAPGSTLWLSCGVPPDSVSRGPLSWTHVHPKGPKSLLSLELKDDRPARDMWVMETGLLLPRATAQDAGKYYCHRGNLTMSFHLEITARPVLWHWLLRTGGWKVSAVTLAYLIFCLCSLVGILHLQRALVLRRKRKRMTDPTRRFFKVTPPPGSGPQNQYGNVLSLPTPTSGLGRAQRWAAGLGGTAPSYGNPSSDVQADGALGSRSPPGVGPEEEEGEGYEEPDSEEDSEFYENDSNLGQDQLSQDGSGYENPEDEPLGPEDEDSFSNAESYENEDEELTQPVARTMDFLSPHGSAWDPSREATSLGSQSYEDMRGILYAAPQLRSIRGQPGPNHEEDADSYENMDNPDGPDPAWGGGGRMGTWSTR

T2: CD79B (UniProt P40259 29-229, limits assumed)
T2 construct: whole, on cells
T2 sequence (looked up): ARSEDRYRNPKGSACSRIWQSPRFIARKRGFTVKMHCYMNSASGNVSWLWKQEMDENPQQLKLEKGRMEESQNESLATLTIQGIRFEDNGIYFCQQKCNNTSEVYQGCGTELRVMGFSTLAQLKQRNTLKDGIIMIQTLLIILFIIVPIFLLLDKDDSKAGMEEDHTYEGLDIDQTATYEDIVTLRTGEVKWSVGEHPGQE

T3: CD37 (UniProt P11049 1-281, limits assumed)
T3 construct: whole, on cells
T3 sequence (looked up): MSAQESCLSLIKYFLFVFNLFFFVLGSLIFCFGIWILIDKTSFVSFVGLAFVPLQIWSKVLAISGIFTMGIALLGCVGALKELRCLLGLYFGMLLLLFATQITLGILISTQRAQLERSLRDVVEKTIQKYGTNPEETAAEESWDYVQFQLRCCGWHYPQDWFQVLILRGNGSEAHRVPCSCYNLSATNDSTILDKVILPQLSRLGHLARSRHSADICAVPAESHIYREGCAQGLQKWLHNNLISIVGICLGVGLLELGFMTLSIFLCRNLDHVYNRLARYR


How the values were obtained:
CD19 [1] = target: T1, CD19; assay: flow cytometry, JeKo-1 cells, anti-His-FITC detection, MFI over no-bridge control
Protocol: (§1) JeKo-1 cells were incubated with different CD19 BRiDGE variants at saturating concentrations. […] The MFI intensity correlates with the number of secondary bound antibodies bound to the CD19 BRiDGE variants that are only detected if they are bound to the JeKo-1 cells. MFI: median fluorescence intensity. BLitz: Bio-Layer interferometry (BLI) technology using HIS-tag identification tips. […] The higher the MFIR, the stronger the binding.

nfP2X7 CAR 1 [2] = target: T4, nfP2X7 CAR 1; assay: flow cytometry, anti-His-FITC, MFI on EGFR+ (CAR+) over EGFR- (CAR-) T cells
T4 construct: CAR-positive cells gated by the co-expressed EGFR marker; also called nfP2X7 targeted CAR; nfP2X7 CAR on EGFR+ T cells
In short: (§2)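 CAR T cells incubated with BRiDGE variants at saturating concentrations; bound BRiDGE detected with anti-His-FITC by flow cytometry. EGFR marks CAR expression. Value is median fluorescence intensity on EGFR+ (CAR+) cells divided by that on EGFR− (CAR−) cells.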

nfP2X7 CAR 1 [3] = target: T4, nfP2X7 CAR 1; assay: flow cytometry, nfP2X7 CAR 1 T cells (EGFR+ gate), anti-His-FITC detection
CD19 [4] = target: T1, CD19; assay: flow cytometry, JeKo-1 cells, bridge at saturating conc., BIL03s-AF647 detection
Protocol: as §1

CD19 [5] = target: T1, CD19; assay: flow cytometry, JeKo-1 cells, bridge at saturating conc., anti-His-FITC detection
Protocol: as §1

nfP2X7 CAR 1 [6] = target: T4, nfP2X7 CAR 1; assay: flow cytometry, anti-His-FITC, MFI on EGFR+ (CAR+) T cells over background 0.44
In short: as §2

CD19 [7] = target: T1, CD19; assay: flow cytometry, JeKo-1 cells, BIL03s-AF647 detection, MFI over no-bridge control
Protocol: as §1

CD79B = target: T2, CD79B; assay: flow cytometry, JeKo-1 cells
CD37 = target: T3, CD37; assay: flow cytometry, JeKo-1 cells

MFIR HisTag FITC (CD19 [1])	HisTag MFI Ratio of EGFR+/EGFR- (nfP2X7 CAR 1 [2])	MFI HisTag FITC in EGFR+ Population (nfP2X7 CAR 1 [3])	MFI Bil03 AF647 (CD19 [4])	MFI HisTag FITC (CD19 [5])	HisTag MFI Ratio (background 0.44) (nfP2X7 CAR 1 [6])	MFIR BIL03 AF647 (CD19 [7])	binding result (CD79B)	binding result (CD37)	Binder
2.97	4.2	2.41	9.15	2.29	5.5	19.9	–	–	CD19 BRIDGE variant B36 (Fab) heavy: EVQLVESGGGLVKPGGSLKLSCAASGYTFTSYVMHWVRQAPGKGLEWIGYINPYNDGTKYNEKFQGRVTISSDKSISTAYMELSSLRSEDTAMYYCARGTYYYGTRVFDYWGQGTLVTVSSASTKGPSVFPLAPSSKSTSGGTAALGCLVKDYFPEPVTVSWNSGALTSGVHTFPAVLQSSGLYSLSSVVTVPSSSLGTQTYICNVNHKPSNTKVDKKVEPKSCHHHHHH light: DFPGHNYTTRNILPGLNITSTFHKTSGSGKGGGGSEPKSSDKTHTGGGGSDIVMTQSPATLSLSPGERATLSCRSSKSLQNVNGNTYLYWFQQKPGQSPQLLIYRMSNLNSGVPDRFSGSGSGTEFTLTISSLEPEDFAVYYCMQHLEYPITFGAGTKLEIKRTVAAPSVFIFPPSDEQLKSGTASVVCLLNNFYPREAKVQWKVDNALQSGNSQESVTEQDSKDSTYSLSSTLTLSKADYEKHKVYACEVTHQGLSSPVTKSFNRGEC
–	–	–	–	–	–	–	binds	–	CD79B bridging molecule (E200 + CD79B binder, Polatuzumab, B025) (Fab, V domains shown) VH: EVQLVESGGGLVQPGGSLRLSCAASGYTFSSYWIEWVRQAPGKGLEWIGEILPGGGDTNYNEIFKGRATFSADTSKNTAYLQMNSLRAEDTAVYYCTRRVPIRLDYWGQGTLVTVSS VL: DIQLTQSPSSLSASVGDRVTITCKASQSVDYEGDSFLNWYQQKPGKAPKLLIYAASNLESGVPSRFSGSGSGTDFTLTISSLQPEDFATYYCQQSNEDPLTFGQGTKVEIKR
–	–	–	–	–	–	–	–	binds	CD37 bridging molecule (E200 + CD37 binder, Otlertuzumab, B026) (Fab, V domains shown) VH: EVQLVQSGAEVKKPGESLKISCKGSGYSFTGYNMNWVRQMPGKGLEWMGNIDPYYGGTTYNRKFKGQVTISADKSISTAYLQWSSLKASDTAMYYCARSVGPFDSWGQGTLVTVSS VL: EIVLTQSPATLSLSPGERATLSCRASENVYSYLAWYQQKPGQAPRLLIYFAKTLAEGIPARFSGSGSGTDFTLTISSLEPEDFAVYYCQHHSDNPWTFGQGTKVEIKR

More lines, now with the values behind:

Binder	MFIR HisTag FITC (CD19 [1])	HisTag MFI Ratio of EGFR+/EGFR- (nfP2X7 CAR 1 [2])	MFI HisTag FITC in EGFR+ Population (nfP2X7 CAR 1 [3])	MFI Bil03 AF647 (CD19 [4])	MFI HisTag FITC (CD19 [5])	HisTag MFI Ratio (background 0.44) (nfP2X7 CAR 1 [6])	MFIR BIL03 AF647 (CD19 [7])	binding result (CD79B)	binding result (CD37)
CD19 BRIDGE variant B32 (Fab) heavy: EVQLVESGGGLVKPGGSLKLSCAASGYTFTSYVMHWVRQAPGKGLEWIGYINPYNDGTKYNEKFQGRVTISSDKSISTAYMELSSLRSEDTAMYYCARGTYYYGTRVFDYWGQGTLVTVSSASTKGPSVFPLAPSSKSTSGGTAALGCLVKDYFPEPVTVSWNSGALTSGVHTFPAVLQSSGLYSLSSVVTVPSSSLGTQTYICNVNHKPSNTKVDKKVEPKSCHHHHHH light: DFPGHNYTTRNILPGLNITSGSEPKSSDKTHTGGGGSDIVMTQSPATLSLSPGERATLSCRSSKSLQNVNGNTYLYWFQQKPGQSPQLLIYRMSNLNSGVPDRFSGSGSGTEFTLTISSLEPEDFAVYYCMQHLEYPITFGAGTKLEIKRTVAAPSVFIFPPSDEQLKSGTASVVCLLNNFYPREAKVQWKVDNALQSGNSQESVTEQDSKDSTYSLSSTLTLSKADYEKHKVYACEVTHQGLSSPVTKSFNRGEC	2.99	4	2.61	8.99	2.3	5.9	19.5	–	–
CD19 BRIDGE variant B33 (Fab) heavy: EVQLVESGGGLVKPGGSLKLSCAASGYTFTSYVMHWVRQAPGKGLEWIGYINPYNDGTKYNEKFQGRVTISSDKSISTAYMELSSLRSEDTAMYYCARGTYYYGTRVFDYWGQGTLVTVSSASTKGPSVFPLAPSSKSTSGGTAALGCLVKDYFPEPVTVSWNSGALTSGVHTFPAVLQSSGLYSLSSVVTVPSSSLGTQTYICNVNHKPSNTKVDKKVEPKSCHHHHHH light: DFPGHNYTTRNILPGLNITSGGGGSEPKSSDKTHTGGGGSDIVMTQSPATLSLSPGERATLSCRSSKSLQNVNGNTYLYWFQQKPGQSPQLLIYRMSNLNSGVPDRFSGSGSGTEFTLTISSLEPEDFAVYYCMQHLEYPITFGAGTKLEIKRTVAAPSVFIFPPSDEQLKSGTASVVCLLNNFYPREAKVQWKVDNALQSGNSQESVTEQDSKDSTYSLSSTLTLSKADYEKHKVYACEVTHQGLSSPVTKSFNRGEC	2.92	3.9	2.39	7.12	2.25	5.4	15.5	–	–
CD19 BRIDGE variant B35 (Fab) heavy: EVQLVESGGGLVKPGGSLKLSCAASGYTFTSYVMHWVRQAPGKGLEWIGYINPYNDGTKYNEKFQGRVTISSDKSISTAYMELSSLRSEDTAMYYCARGTYYYGTRVFDYWGQGTLVTVSSASTKGPSVFPLAPSSKSTSGGTAALGCLVKDYFPEPVTVSWNSGALTSGVHTFPAVLQSSGLYSLSSVVTVPSSSLGTQTYICNVNHKPSNTKVDKKVEPKSCHHHHHH light: DFPGHNYTTRNILPGLNITSTFHKTSGSGKGSEPKSSDKTHTGGGGSDIVMTQSPATLSLSPGERATLSCRSSKSLQNVNGNTYLYWFQQKPGQSPQLLIYRMSNLNSGVPDRFSGSGSGTEFTLTISSLEPEDFAVYYCMQHLEYPITFGAGTKLEIKRTVAAPSVFIFPPSDEQLKSGTASVVCLLNNFYPREAKVQWKVDNALQSGNSQESVTEQDSKDSTYSLSSTLTLSKADYEKHKVYACEVTHQGLSSPVTKSFNRGEC	3	4.1	2.51	9.49	2.31	5.7	20.6	–	–
CD19 BRIDGE variant B34 (Fab) heavy: EVQLVESGGGLVKPGGSLKLSCAASGYTFTSYVMHWVRQAPGKGLEWIGYINPYNDGTKYNEKFQGRVTISSDKSISTAYMELSSLRSEDTAMYYCARGTYYYGTRVFDYWGQGTLVTVSSASTKGPSVFPLAPSSKSTSGGTAALGCLVKDYFPEPVTVSWNSGALTSGVHTFPAVLQSSGLYSLSSVVTVPSSSLGTQTYICNVNHKPSNTKVDKKVEPKSCHHHHHH light: DFPGHNYTTRNILPGLNITSTFHKTSGSGKEPKSSDKTHTGGGGSDIVMTQSPATLSLSPGERATLSCRSSKSLQNVNGNTYLYWFQQKPGQSPQLLIYRMSNLNSGVPDRFSGSGSGTEFTLTISSLEPEDFAVYYCMQHLEYPITFGAGTKLEIKRTVAAPSVFIFPPSDEQLKSGTASVVCLLNNFYPREAKVQWKVDNALQSGNSQESVTEQDSKDSTYSLSSTLTLSKADYEKHKVYACEVTHQGLSSPVTKSFNRGEC	2.84	4.3	2.41	7.04	2.19	5.5	15.3	–	–
